Data from the RNAGym collection of RNA variant scans (doi:10.7554/elife.80360).

B1: CPEB3 Ribozyme (parent)
chain: GGGGGCCACAGCAGAAGCGUUCACGUCGCGGCCCCUGUCAGAUUCUGGUGAAUCUGCGAAUUCUGCUGU

Variants of: B1
Assay: self-cleavage, relative activity (ratio to wild type); higher = more cleavage; co-transcriptional

Row | Variant | self-cleavage
1 | A16U C57U | 0.196
2 | A16U C57G | 0.246
3 | G17C C27G | 0.156
4 | G17C C27A | 0.129
5 | G17C G68C | 0.242
6 | G17C G68A | 0.331
7 | A16U U21A | 0.839
8 | A16U U67G | 0.9
9 | A16U U67A | 0.877
10 | G17A U49G | 0.444
11 | G17A U49C | 0.486
12 | G17A U49A | 0.611
13 | A16U U20C | 0.196
14 | A16U U20A | 0.124
15 | G17C G41U | 0.123
16 | G17C G41C | 0.156
17 | G17C A52G | 0.196
18 | G17C A52U | 0.133
19 | G17C U62G | 0.201
20 | G17C U62A | 0.171
21 | A16U C33A | 0.555
22 | A16U C33U | 0.865
23 | A16U C33G | 0.319
24 | G17C U46A | 0.122

Row | Variant | self-cleavage
25 | G17C U46G | 0.101
26 | G17C U46C | 0.119
27 | G17C U55C | 0.138
28 | G17C U55G | 0.062
29 | G17A U44C | 0.255
30 | G17A U44A | 0.397
31 | G17A U44G | 0.302
32 | A16U G31A | 0.482
33 | G17C C54A | 0.1
34 | G17C C54G | 0.166
35 | G17C U69A | 0.246
36 | G17C U69G | 0.303
37 | G17C G65A | 0.158
38 | G17C G65U | 0.131
39 | A16U U69A | 0.923
40 | A16U U69C | 1.02
41 | A16U G19U | 0.164
42 | A16U G19A | 0.13
43 | A16U | 0.888
44 | G17C G48C | 0.158
45 | G17C G48U | 0.194
46 | G17C C66U | 0.152
47 | A16U A59U | 0.381
48 | G17A G28A | 0.145

Row | Variant | self-cleavage
49 | G17A G28U | 0.139
50 | A16U C66G | 0.356
51 | A16U C66A | 0.427
52 | A16U C66U | 0.785
53 | G17A U67G | 0.542
54 | G17A U67A | 0.45
55 | G17C C57A | 0.147
56 | G17C C57U | 0.18
57 | A16U A60C | 0.227
58 | A16U A60G | 0.56
59 | A16U A60U | 0.251
60 | G17C G25U | 0.107
61 | G17C G25A | 0.15
62 | G17C G25C | 0.12
63 | G17A U20C | 0.0978
64 | A16U A42C | 0.746
65 | A16U A42G | 0.739
66 | G17A U69C | 0.883
67 | G17A U69G | 0.677
68 | G17A U21C | 0.169
69 | G17A U21G | 0.128
70 | G17A U21A | 0.384
71 | G17A G47C | 0.641
72 | G17A G47A | 0.541

Row | Variant | self-cleavage
73 | G17A C57U | 0.197
74 | G17A C57G | 0.227
75 | G17A C57A | 0.145
76 | A16U U61A | 0.93
77 | A16U U61C | 0.599
78 | A16U U61G | 0.902
79 | A16U G28A | 0.0797
80 | A16U G28U | 0.131
81 | A16U G28C | 0.166
82 | G17C C39G | 0.115
83 | G17C C39A | 0.081
84 | A16U U46C | 0.874
85 | G17A C32G | 0.13
86 | G17A C32U | 0.625
87 | G17C G47C | 0.212
88 | A16G U64G | 0.727
89 | A16G U64A | 0.645
90 | G17A A42U | 0.314
91 | G17A A42C | 0.253
92 | G17A U36A | 0.0937
93 | G17A U36G | 0.117
94 | G17A U36C | 0.225
95 | A16G U67G | 0.951
96 | A16G U67C | 0.935

Row | Variant | self-cleavage
97 | G17A G37A | 0.153
98 | G17A G37C | 0.149
99 | G17C C18U | 0.169
100 | A16U G47A | 0.893
101 | G17A C33U | 0.43
102 | A16G U55C | 0.534
103 | G17C G58U | 0.227
104 | G17C G58C | 0.198
105 | G17C G58A | 0.139
106 | G17A A51C | 0.452
107 | G17A A51G | 0.455
108 | G17C C34A | 0.18
109 | G17C C34G | 0.157
110 | G17C C34U | 0.174
111 | G17C G31U | 0.103
112 | G17C G31C | 0.14
113 | A16U C18A | 0.0736
114 | G17C C45G | 0.142
115 | G17C C45U | 0.121
116 | A16U U38C | 0.625
117 | A16U U38A | 0.424
118 | G17C C33A | 0.152
119 | G17C C33U | 0.139
120 | G17A C66A | 0.226

Row | Variant | self-cleavage
121 | G17A C66U | 0.347
122 | G17A C66G | 0.233
123 | A16U U26A | 0.221
124 | A16U U26C | 0.812
125 | G17A C29A | 0.572
126 | G17A C29U | 0.858
127 | A16U G50U | 0.862
128 | A16U C34U | 0.892
129 | A16U C34A | 0.4
130 | A16U C34G | 0.353
131 | G17A C18G | 0.147
132 | G17A C18A | 0.116
133 | G17A C45A | 0.366
134 | G17A C45G | 0.435
135 | G17C U36A | 0.18
136 | G17C U36G | 0.163
137 | G17A U55G | 0.16
138 | G17A C54G | 0.187
139 | G17A C54U | 0.488
140 | G17A C54A | 0.236
141 | G17C U53G | 0.126
142 | A16U G65A | 0.442
143 | A16G U46G | 0.969
144 | A16G U46C | 0.728

Row | Variant | self-cleavage
145 | A16U G58A | 0.866
146 | A16U G58C | 0.756
147 | G17A G65U | 0.225
148 | G17A G65A | 0.203
149 | G17A G65C | 0.27
150 | G17A C24G | 0.116
151 | G17A C24A | 0.221
152 | A16G U49G | 0.979
153 | G17C U20G | 0.132
154 | G17C U20A | 0.123
155 | G17C C32U | 0.136
156 | G17C C32A | 0.113
157 | G17A C22A | 0.157
158 | G17A C22G | 0.127
159 | G17A U38G | 0.11
160 | G17A U38C | 0.314
161 | G17C A51G | 0.126
162 | G17C A51U | 0.173
163 | G17A U62G | 0.198
164 | G17A U62C | 0.193
165 | G17C U49A | 0.149
166 | G17C U49G | 0.148
167 | G17C U49C | 0.158
